Several values for one entry are separate records, joined by “and”; a condition that tells them apart may be missing. Equal values may be shown once.
Target: Brucella ovis PhyK (HWE-family histidine kinase, BOV_1602) (Brucella ovis)
Test: SEC

## Brucella ovis PhyK (HWE-family histidine kinase, BOV_1602) (enzyme)
  stoichiometry N: 6 and 2

Source: PMC12354254
